The values below come from paper PMC3131183.

What all share (assay): FRET or BRET
For orientation: In BRET a luciferase serves as donor, and the signal depends on an acceptor being close.

Assay [1] addresses β-arrestin-1 (human (endogenous in PMNs)) (UniProt P49407).
In assay [2] the target is Gγ subunit (human (endogenous in PMNs)) (UniProt P59768).
The target in assay [3] is Hck (haemopoietic cell kinase) (human (endogenous in PMNs)) (UniProt P08631).
Chain of UniProt P08631 (P08631 whole entry): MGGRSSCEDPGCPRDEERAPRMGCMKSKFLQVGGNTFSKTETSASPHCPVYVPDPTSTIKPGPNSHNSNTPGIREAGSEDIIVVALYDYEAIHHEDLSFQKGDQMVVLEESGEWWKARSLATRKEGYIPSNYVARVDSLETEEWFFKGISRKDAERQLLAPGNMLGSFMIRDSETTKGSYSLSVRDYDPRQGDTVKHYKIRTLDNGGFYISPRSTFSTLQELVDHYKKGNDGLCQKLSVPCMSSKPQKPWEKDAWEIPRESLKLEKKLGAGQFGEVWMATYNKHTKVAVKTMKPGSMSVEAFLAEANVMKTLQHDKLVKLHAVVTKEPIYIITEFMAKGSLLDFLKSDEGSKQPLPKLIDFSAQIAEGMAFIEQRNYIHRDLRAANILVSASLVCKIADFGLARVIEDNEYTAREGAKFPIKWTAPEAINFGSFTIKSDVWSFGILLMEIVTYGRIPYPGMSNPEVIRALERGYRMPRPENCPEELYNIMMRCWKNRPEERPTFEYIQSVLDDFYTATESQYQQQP

Chain of UniProt P49407 (P49407 whole entry): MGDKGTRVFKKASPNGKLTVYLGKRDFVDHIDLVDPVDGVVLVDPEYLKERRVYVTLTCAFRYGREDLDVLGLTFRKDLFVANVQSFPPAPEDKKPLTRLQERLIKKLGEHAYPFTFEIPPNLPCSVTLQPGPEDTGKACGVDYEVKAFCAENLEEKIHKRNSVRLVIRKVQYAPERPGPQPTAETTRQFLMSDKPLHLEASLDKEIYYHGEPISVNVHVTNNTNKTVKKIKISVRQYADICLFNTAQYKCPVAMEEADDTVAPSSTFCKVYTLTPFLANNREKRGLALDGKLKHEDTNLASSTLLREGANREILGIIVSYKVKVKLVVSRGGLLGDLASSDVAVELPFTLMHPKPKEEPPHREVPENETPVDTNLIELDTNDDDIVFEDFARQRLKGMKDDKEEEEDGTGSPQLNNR

As to “clathrin heavy chain (from UniProt Q00610 1-1675) (natural protein)”, the FRET efficiency in assay [1] stood at 38%.
With “Gβ subunit (from UniProt P62873 1-340) (natural protein)”, the FRET efficiency in assay [2] was 58%; in assay [3], 54%.
